Earlier results in article PMC1298930.

Biological target: PCNA2 (Sulfolobus solfataricus) (UniProt Q97Z84)
Sequence of UniProt Q97Z84 (Q97Z84 whole entry): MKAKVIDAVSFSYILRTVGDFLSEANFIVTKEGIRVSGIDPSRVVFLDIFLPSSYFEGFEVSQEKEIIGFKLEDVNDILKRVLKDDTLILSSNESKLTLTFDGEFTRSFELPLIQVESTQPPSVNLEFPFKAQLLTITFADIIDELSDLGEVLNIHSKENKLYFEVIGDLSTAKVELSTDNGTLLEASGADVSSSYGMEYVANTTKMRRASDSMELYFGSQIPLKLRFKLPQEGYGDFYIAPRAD

Substance: PCNA1 (from UniProt P57766)
- Kd: 0.012 nM
